In the supplement of paper PMC10567573:

B1: LRRC45 (parent)
chain: FQTRQEMTSMSAELKMRAIQAEER

Variants of: B1
Assay: protein stability index of a GFP-peptide fusion (GPS, HEK-293T) (PSI 1-6); higher = more stable
Details: c terminus: a fixed tail appended
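Note: lentivirally expressed fusions sorted by FACS into six bins by GFP to DsRed ratio, PSI derived from sequencing read proportions per bin multiplied by bin number.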

Variant | protein stability index
FQTRQEMTSMSAELKMRYIQAEER | 3.69
FQTRQEMTSMSAELKMRAITAEER | 3.9
FQTRQEMTSMSAELKMRAIDAEER | 3.99
FQTRQEMTSMSAELKMRAIPAEER | 3.76
FQTRQEMTSMSAELKMRAIIAEER | 2.8
FQTRQEMTSMSAELKMRAISAEER | 4.11
FQTRQEMTSMSAELKMRAIEAEER | 4.34
FQTRQEMTSMSAELKMRAIFAEER | 2.26
FQTRQEMTSMSAELKMRAIAAEER | 4.3
FQTRQEMTSMSAELKMRAIYAEER | 3.08
FQTRQEMTSMSAELKMRAIGAEER | 3.62
FQTRQEMTSMSAELKMRAILAEER | 3.57
FQTRQEMTSMSAELKMRAIKAEER | 3.5
FQTRQEMTSMSAELKMRAIHAEER | 3.98
FQTRQEMTSMSAELKMRAINAEER | 3.83
FQTRQEMTSMSAELKMRAIWAEER | 2.74
FQTRQEMTSMSAELKMRAICAEER | 3
FQTRQEMTSMSAELKMRAIVAEER | 3.28
FQTRQEMTSMSAELKMRAIMAEER | 3.52
FQTRQEMTSMSAELKMRAIRAEER | 3.2
FQTRQEMTSMSAELKMRAIQAEET | 3.96
FQTRQEMTSMSAELKMRAIQAEES | 4.3
FQTRQEMTSMSAELKMRAIQAEEP | 3.88

Variant | protein stability index
FQTRQEMTSMSAELKMRAIQAEEN | 4.05
FQTRQEMTSMSAELKMRAIQAEEA | 4.19
FQTRQEMTSMSAELKMRAIQAEEK | 4.26
FQTRQEMTSMSAELKMRAIQAEEW | 2.85
FQTRQEMTSMSAELKMRAIQAEED | 4.29
FQTRQEMTSMSAELKMRAIQAEEM | 3.54
FQTRQEMTSMSAELKMRAIQAEEH | 4.01
FQTRQEMTSMSAELKMRAIQAEEF | 3.19
FQTRQEMTSMSAELKMRAIQAEEL | 4.05
FQTRQEMTSMSAELKMRAIQAEEV | 3.67
FQTRQEMTSMSAELKMRAIQAEEE | 4.5
FQTRQEMTSMSAELKMRAIQAEEC | 3.4
FQTRQEMTSMSAELKMRAIQAEEQ | 4.5
FQTRQEMTSMSAELKMRAIQAEEI | 3.94
FQTRQEMTSMSAELKMRAIQAEEY | 3.71
FQTRQEMTSMSAELKMRAIQAEEG | 4.18
FQTRQEMTSMSAELKMRAIQAEMR | 3.16
FQTRQEMTSMSAELKMRAIQAERR | 3.54
FQTRQEMTSMSAELKMRAIQAEPR | 3.81
FQTRQEMTSMSAELKMRAIQAEWR | 2.26
FQTRQEMTSMSAELKMRAIQAELR | 3.1
FQTRQEMTSMSAELKMRAIQAEHR | 3.39
FQTRQEMTSMSAELKMRAIQAECR | 2.61

Variant | protein stability index
FQTRQEMTSMSAELKMRAIQAEAR | 3.16
FQTRQEMTSMSAELKMRAIQAETR | 3.16
FQTRQEMTSMSAELKMRAIQAESR | 3.52
FQTRQEMTSMSAELKMRAIQAEIR | 3.7
FQTRQEMTSMSAELKMRAIQAEKR | 3.53
FQTRQEMTSMSAELKMRAIQAEVR | 3.22
FQTRQEMTSMSAELKMRAIQAEYR | 2.88
FQTRQEMTSMSAELKMRAIQAEDR | 3.33
FQTRQEMTSMSAELKMRAIQAEQR | 4.11
FQTRQEMTSMSAELKMRAIQAEFR | 2.99
FQTRQEMTSMSAELKMRAIQAENR | 3.32
FQTRQEMTSMSAELKMRAIQAEGR | 3.56
FQTRQEMTSMSAELKMRAIQTEER | 3.83
FQTRQEMTSMSAELKMRAIQGEER | 3.97
FQTRQEMTSMSAELKMRAIQREER | 3.8
FQTRQEMTSMSAELKMRAIQFEER | 3.89
FQTRQEMTSMSAELKMRAIQNEER | 4.15
FQTRQEMTSMSAELKMRAIQMEER | 3.57
FQTRQEMTSMSAELKMRAIQCEER | 3.68
FQTRQEMTSMSAELKMRAIQSEER | 3.81
FQTRQEMTSMSAELKMRAIQPEER | 3.89
FQTRQEMTSMSAELKMRAIQVEER | 3.59
FQTRQEMTSMSAELKMRAIQHEER | 4.03

Variant | protein stability index
FQTRQEMTSMSAELKMRAIQLEER | 4
FQTRQEMTSMSAELKMRAIQYEER | 3.76
FQTRQEMTSMSAELKMRAIQEEER | 4.32
FQTRQEMTSMSAELKMRAIQDEER | 4.63
FQTRQEMTSMSAELKMRAIQKEER | 3.76
FQTRQEMTSMSAELKMRAIQIEER | 3.49
FQTRQEMTSMSAELKMRAIQQEER | 3.79
FQTRQEMTSMSAELKMRAIQWEER | 3.43
FQTRQEMTSMSAELKMRAIQADER | 3.64
FQTRQEMTSMSAELKMRAIQANER | 3.44
FQTRQEMTSMSAELKMRAIQAWER | 2.56
FQTRQEMTSMSAELKMRAIQAFER | 2.56
FQTRQEMTSMSAELKMRAIQARER | 3.18
FQTRQEMTSMSAELKMRAIQAKER | 3.57
FQTRQEMTSMSAELKMRAIQAGER | 2.53
FQTRQEMTSMSAELKMRAIQASER | 3.28
FQTRQEMTSMSAELKMRAIQATER | 3.23
FQTRQEMTSMSAELKMRAIQALER | 2.59
FQTRQEMTSMSAELKMRAIQAQER | 3.37
FQTRQEMTSMSAELKMRAIQAPER | 2.74
FQTRQEMTSMSAELKMRAIQAAER | 3.56
FQTRQEMTSMSAELKMRAIQAIER | 3.1
FQTRQEMTSMSAELKMRAIQAHER | 2.92

Variant | protein stability index
FQTRQEMTSMSAELKMRAIQAYER | 3.9
FQTRQEMTSMSAELKMRAIQACER | 3.18
FQTRQEMTSMSAELKMRAIQAMER | 3.64
FQTRQEMTSMSAELKMRAIQAVER | 3.18
FQTRQEMTSMSAELKMRAKQAEER | 4.68
FQTRQEMTSMSAELKMRAAQAEER | 4.53
FQTRQEMTSMSAELKMRADQAEER | 4.73
FQTRQEMTSMSAELKMRAMQAEER | 3.84
FQTRQEMTSMSAELKMRAVQAEER | 4.28
FQTRQEMTSMSAELKMRAQQAEER | 4.09
FQTRQEMTSMSAELKMRACQAEER | 3.96
FQTRQEMTSMSAELKMRANQAEER | 4.27
FQTRQEMTSMSAELKMRAFQAEER | 3.81
FQTRQEMTSMSAELKMRAWQAEER | 3.04
FQTRQEMTSMSAELKMRALQAEER | 4.08
FQTRQEMTSMSAELKMRAPQAEER | 3.84
FQTRQEMTSMSAELKMRASQAEER | 4.38
FQTRQEMTSMSAELKMRAHQAEER | 4.38
FQTRQEMTSMSAELKMRAEQAEER | 4.55
FQTRQEMTSMSAELKMRAYQAEER | 3.8
FQTRQEMTSMSAELKMRAGQAEER | 3.89
FQTRQEMTSMSAELKMRATQAEER | 4.21
FQTRQEMTSMSAELKMRARQAEER | 4.19
